Patent US20250257130A1 (NONA BIOSCIENCES SUZHOU, published 2025)

Columns and labels:
[1] = target: T1, human ROR1 on cells (HEK293T-hROR1, PANC-1, A549) (human, UniProt Q01973 30-937); assay: flow cytometry, A549 cells
T1 construct: whole, on cells; one molecule for the three cell lines; also called huROR1; cell surface ROR1
Description: (§1) In brief, anti-ROR1 antibodies were serially diluted in staining buffer (PBS containing 2% FBS). Antibody solution was incubated with 1×10⁵ cells at 4° C. for 1 hour. […] After 1-hour incubation at 4° C., cells were washed twice with staining buffer and subjected to flow cytometry. PR000374 (Bench marker 1) and non-relevant IgG isotype control (Crownbio) were used as positive and negative controls, respectively.

[2] = target: T1, human ROR1 on cells (HEK293T-hROR1, …); assay: flow cytometry on HEK293T-hROR1 cells, MFI (Mean)
Description: Binding of recombinant anti-ROR1 antibodies to human or cynomolgus ROR1-overexpressing cells was tested by flow cytometry. In this example, ROR1-expressing cell lines are HEK293T cell lines that had been transfected to express human ROR1 on the surface (HEK293T-hu ROR1, KYINNO BIOTECHNOLOGY CO., LTD, Catalog #KC-1018), CHO-K1 cell lines that had been transfected to express cynomolgus ROR1 (CHOK1-cyno ROR1), PANC-1 (ATCC, catalog: CRL-1469) or A549 cell lines (Shanghai Institute of Biochemistry and Cell Biology, Chinese Academy of Sciences).
as §1

[3] = target: T2, hu-ROR2-ECD-his (Acrobiosystems RO2-H52E5) (human, UniProt Q01974 34-403); assay: ELISA, plate coated with hu-ROR2-his at 1 µg/mL
T2 construct: extracellular domain; bought protein; also called Human ROR2 his-tagged protein; Human ROR2, His Tag
Description: 1 μg/mL hu-ROR2-ECD-his (Acrobiocystems, RO2-H52E5) was added to the 96-well plate, 100 μL each well, incubated at 4° C. overnight, washing the plates with 1×PBST 3 times, 300 ul/well, blocking the plates with 2% BSA in 1×PBST, 200 ul/well at 37° C. for 1 hour, anti-ROR1 antibodies were serially diluted in staining buffer (PBS containing 2% BSA). Antibody solution was added to the plate and incubates at 37° C. for 1 hour, washing the plates with 1×PBST 3 times, 300 ul/well, adding secondary antibody 100 ul/well and incubate at 37° C. for 1 hour, washing the plates with 1×PBST 3 times, 300 ul/well and then add 100 ul/well TMB for about 5 min, stop the reaction by adding 100 ul/well 2M H₂SO₄, read the plates with Molecular device spectra max plus384 at 450 nm and 570 nm.

[4] = target: T1, human ROR1 on cells (HEK293T-hROR1, …); assay: flow cytometry, HEK293T-hROR1 cells
Description: as §1

[5] = target: T3, cynomolgus ROR1 on CHO-K1-cynoROR1 cells (cynomolgus monkey, UniProt A0A2K5WTX7 30-937); assay: flow cytometry, CHO-K1-cynoROR1 cells
T3 construct: whole, on cells
Description: as §1

[6] = target: T4, Human ROR1-ECD-his (Acro Biosystems RO1-H522y) (human, UniProt Q01973 30-406); assay: BLI, ROR1-His on HIS1K sensor, antibody in solution
T4 construct: extracellular domain; bought protein; also called hROR1-ECD-his; hu-ROR1-ECD-his
Description: In the example, binding kinetics of anti-ROR1 antibodies to soluble ROR1 protein were analyzed by using Bio-Layer Interferometry (BLI) analysis on Fortebio Octet Red384 instrument (Fortebio).
In BLI analysis, recombinant anti-ROR1 antibodies was serially diluted with 10× kinetics buffer (Fortebio). Human ROR1-His proteins were diluted to 20 nM. Then the diluted antibodies, ROR1 proteins and regeneration buffer (10 mM glycine HCl pH 1.5) were added to 96-well plates (Greiner). Rate constants for association and dissociation were measured using HIS1K sensor (Fortebio). The sensor surface was regenerated after each binding experiment with regeneration buffer. The traces were processed using Octet Data Analysis Software (version 11.0, Pall ForteBio, CA, USA).

[7] = target: T4, Human ROR1-ECD-his (Acro Biosystems …); assay: ELISA, coated hu-ROR1-ECD-his
Description: (§2) Binding of recombinant anti-ROR1 antibodies to hu-ROR1-ECD-his was tested by ELISA. In brief, 1 μg/mL hu-ROR1-ECD-his was added to the 96-well plate, 100 μL each well, incubated at 4° C. overnight, washing the plates with 1×PBST 3 times, 300 ul/well, blocking the plates with 2% BSA in 1×PBST, 200 ul/well at 37° C. for 1 hour, anti-ROR1 antibodies were serially diluted in staining buffer (PBS containing 2% BSA). Antibody solution was added to the plate and incubates at 37° C. for 1 hour, washing the plates with 1×PBST 3 times, 300 ul/well, adding secondary antibody 100 ul/well and incubate at 37° C. for 1 hour, washing the plates with 1×PBST 3 times, 300 ul/well and then add 100 ul/well TMB for about 5 min, stop the reaction by adding 100 ul/well 2M H₂SO₄, read the plates with Molecular device spectra max plus384 at 450 nm and 570 nm.

[8] = target: T1, human ROR1 on cells (HEK293T-hROR1, …); assay: flow cytometry, PANC-1 cells
Description: as §1

[9] = target: T4, Human ROR1-ECD-his (Acro Biosystems …); assay: ELISA, plate coated with hu-ROR1-his at 1 µg/mL
Description: as §2

[10] = target: T1, human ROR1 on cells (HEK293T-hROR1, …); assay: flow cytometry, PANC-1 cells; remark: listed apart in the source
Description: as §1
Binding activity of the variants to PANC-1 cells were tested using the same method described in example 5.1. The results were shown in FIGS. 7-8 and Table 11 and Table 12.

[11] = target: T1, human ROR1 on cells (HEK293T-hROR1, …); assay: flow cytometry on PANC-1 cells, MFI (Median-APC) [top panel]
[12] = target: T1, human ROR1 on cells (HEK293T-hROR1, …); assay: flow cytometry on PANC-1 cells, MFI (Median-APC) [bottom panel, letter not given]
[13] = target: T1, human ROR1 on cells (HEK293T-hROR1, …); assay: flow cytometry on PANC-1 cells, MFI (Median-APC) [middle panel, letter not given]

T1 sequence (Q01973 30-937): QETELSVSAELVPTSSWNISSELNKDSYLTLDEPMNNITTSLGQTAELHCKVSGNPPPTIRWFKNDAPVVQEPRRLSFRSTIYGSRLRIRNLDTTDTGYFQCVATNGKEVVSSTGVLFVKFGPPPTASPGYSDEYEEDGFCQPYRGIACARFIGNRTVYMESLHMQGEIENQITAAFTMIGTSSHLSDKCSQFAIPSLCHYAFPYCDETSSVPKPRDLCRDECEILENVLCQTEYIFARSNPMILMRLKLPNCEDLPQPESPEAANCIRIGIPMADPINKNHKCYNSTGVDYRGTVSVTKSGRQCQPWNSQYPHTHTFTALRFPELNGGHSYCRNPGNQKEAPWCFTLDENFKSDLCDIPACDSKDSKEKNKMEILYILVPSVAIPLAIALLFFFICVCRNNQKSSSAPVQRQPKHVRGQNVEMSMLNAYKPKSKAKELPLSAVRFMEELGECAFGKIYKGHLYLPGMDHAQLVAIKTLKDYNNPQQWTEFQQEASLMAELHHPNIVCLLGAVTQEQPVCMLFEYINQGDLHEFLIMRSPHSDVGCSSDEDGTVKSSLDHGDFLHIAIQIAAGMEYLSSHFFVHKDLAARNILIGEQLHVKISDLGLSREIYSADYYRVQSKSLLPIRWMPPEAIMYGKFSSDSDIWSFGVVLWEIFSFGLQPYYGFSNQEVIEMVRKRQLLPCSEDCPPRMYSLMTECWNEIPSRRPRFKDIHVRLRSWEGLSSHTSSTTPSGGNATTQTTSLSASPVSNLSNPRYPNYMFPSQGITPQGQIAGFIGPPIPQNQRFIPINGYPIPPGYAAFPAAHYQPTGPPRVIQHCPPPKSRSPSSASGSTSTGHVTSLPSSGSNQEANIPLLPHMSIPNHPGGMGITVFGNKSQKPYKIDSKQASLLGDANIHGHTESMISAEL
T4 sequence (Q01973 30-406): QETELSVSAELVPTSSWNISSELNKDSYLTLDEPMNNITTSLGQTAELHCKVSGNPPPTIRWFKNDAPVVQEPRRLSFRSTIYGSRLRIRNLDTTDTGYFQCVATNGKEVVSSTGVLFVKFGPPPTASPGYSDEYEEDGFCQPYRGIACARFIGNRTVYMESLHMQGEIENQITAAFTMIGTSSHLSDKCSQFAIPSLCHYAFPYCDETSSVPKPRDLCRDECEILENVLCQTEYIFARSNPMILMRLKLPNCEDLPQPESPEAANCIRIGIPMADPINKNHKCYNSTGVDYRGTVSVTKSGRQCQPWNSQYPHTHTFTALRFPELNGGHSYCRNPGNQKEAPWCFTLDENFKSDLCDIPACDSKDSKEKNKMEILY
T2 sequence (Q01974 34-403): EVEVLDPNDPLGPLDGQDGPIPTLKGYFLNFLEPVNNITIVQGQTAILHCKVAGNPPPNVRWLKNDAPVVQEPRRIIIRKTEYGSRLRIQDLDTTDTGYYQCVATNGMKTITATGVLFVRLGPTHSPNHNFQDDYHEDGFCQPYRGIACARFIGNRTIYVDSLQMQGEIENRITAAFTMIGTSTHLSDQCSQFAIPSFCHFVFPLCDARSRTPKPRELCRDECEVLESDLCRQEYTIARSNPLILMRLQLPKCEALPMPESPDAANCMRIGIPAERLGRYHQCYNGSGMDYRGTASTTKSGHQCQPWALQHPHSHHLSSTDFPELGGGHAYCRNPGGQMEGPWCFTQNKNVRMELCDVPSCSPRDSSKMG

Row | Binder | TOP [10] | EC50 (read off the curve) [11] | EC50 (read off the curve) [13] | other results
1 | PR303147 (antibody, human IgG1, V domains shown, HCAb (heavy chain-only, human IgG1 Fc), no light chain) VH: EVQLVESGGGLVQPGGSLRLSCAASGFTFSNFWMYWVRQAPGKGLVWVSRINSDGSSTNYADSVKGRFTISRDNAKNTLYLQMNSLRVEDTAVYSCAREGSGWYEDFDYWGQGTLVTVSS |  |  |  | EC50 [1]: 6.46 µg/mL; MAX(MFI) [1]: 412000 MFI; EC50 (read off the curve) [2]: ~0.3 µg/mL; binding result [3]: no binding (tested: about 15 µg/ml); EC50 [4]: 0.325 µg/mL; MAX(MFI) [4]: 1.46e+07 MFI; EC50 [5]: 1.26 µg/mL; MAX(MFI) [5]: 3.67e+06 MFI; Kd [6]: 11.2 nM; koff [6]: 0.0165 s⁻¹; kon [6]: 1.47e+06 M⁻¹ s⁻¹; EC50 [7]: 0.023 µg/mL; EC50 [8]: 7.77 µg/mL; MAX(MFI) [8]: 291000 MFI; EC50 (read off the curve) [9]: ~0.02 µg/mL
2 | PR007411 (antibody, V domains shown, bivalent form (HCAb) variant of PR005340, no light chain) VH: EVQLVESGGGLVKPGGSLRLSCAASGFTFSDFYMSWIRQAPGKGLEWISYISSSGSTIHYADSVKGRFTISRDNAKNSLYLQMNSLRAEDTAIYYCARDMPSSSSDWVDLQFDYWGQGTLVTVSS | 81400 | ~0.7 nM |  | 
3 | PR007413 (antibody, V domains shown, bivalent form (HCAb) variant of PR005340, no light chain) VH: EVQLVESGGGLVKPGGSLRLSCAASGFTFSDFYMSWIRQAPGKGLEWISYINTRGSPIGYADSVKGRFTISRDNAKNSLYLQMNSLRAEDTAIYYCARDMPSSSSDWVDLQFDYWGQGTLVTVSS | 89800 |  | ~0.6 nM | 
4 | PR007410 (antibody, V domains shown, bivalent form (HCAb) variant of PR005340, no light chain) VH: EVQLVESGGGLVKPGGSLRLSCAASGFTFSDFYMSWIRQAPGKGLEWISYISSSGSYIHYADSVKGRFTISRDNAKNSLYLQMNSLRAEDTAIYYCARDIPSSSSDWVDLQFDYWGQGTLVTVSS | 80300 | ~0.8 nM |  | 
5 | PR007408 (antibody, V domains shown, bivalent form (HCAb) variant of PR005340, no light chain) VH: EVQLVESGGGLVKPGGSLRLSCAASGFTFSDFYMSWIRQAPGKGLEWISYISSSGSYIHYADSVKGRFTISRDNAKNSLYLQMNSLRAEDTAIYYCARDMPSSSSDWVDLQFDYWGQGTLVTVSS | 87000 | ~0.4 nM |  | 
6 | PR007416 (antibody, V domains shown, bivalent form (HCAb) variant of PR005340, no light chain) VH: EVQLVESGGGLVKPGGSLRLSCAASGFTFSDFYMSWIRQAPGKGLEWISYINTRGSPIGYADSVKGRFTISRDNAKNSLYLQMNSLRAEDTAIYYCARDIPSSSSDWVDLQFDYWGQGTLVTVSS | 87600 |  | ~0.7 nM | 
7 | PR007412 (antibody, V domains shown, bivalent form (HCAb) variant of PR005340, no light chain) VH: EVQLVESGGGLVKPGGSLRLSCAASGFTFSDFYMSWIRQAPGKGLEWISYISSSGSWIHYADSVKGRFTISRDNAKNSLYLQMNSLRAEDTAIYYCARDMPSSSSDWVSLQFDYWGQGTLVTVSS | 77200 | ~0.5 nM |  | 
8 | PR007409 (antibody, V domains shown, bivalent form (HCAb) variant of PR005340, no light chain) VH: EVQLVESGGGLVKPGGSLRLSCAASGFTFSDFYMSWIRQAPGKGLEWISYISSSGSWIHYADSVKGRFTISRDNAKNSLYLQMNSLRAEDTAIYYCARDIPSSSSDWVDLQFDYWGQGTLVTVSS | 87400 | ~0.8 nM |  | 
9 | PR007414 (antibody, V domains shown, bivalent form (HCAb) variant of PR005340, no light chain) VH: EVQLVESGGGLVKPGGSLRLSCAASGFTFSDFYMSWIRQAPGKGLEWISYISSSGSTRYYADSVKGRFTISRDNAKNSLYLQMNSLRAEDTAIYYCARDMPSSSSDWVDLQFDYWGQGTLVTVSS | 88900 |  | ~0.5 nM | 
10 | PR007415 (antibody, V domains shown, bivalent form (HCAb) variant of PR005340, no light chain) VH: EVQLVESGGGLVKPGGSLRLSCAASGFTFSDFYMSWIRQAPGKGLEWISYIDSSGRPLAYADSVKGRFTISRDNAKNSLYLQMNSLRAEDTAIYYCARDMPSSSSDWVDLQFDYWGQGTLVTVSS | 82800 |  | ~0.4 nM | 

Second part, led by results:

Row | TOP [10] | EC50 (read off the curve) [11] | EC50 (read off the curve) [13] | Binder | other results
11 | 79500 |  |  | PR007420 (antibody, V domains shown, bivalent form (HCAb) variant of PR005340, no light chain) VH: EVQLVESGGGLVKPGGSLRLSCAASGFTFSDFYMSWIRQAPGKGLEWISYISSSGSTRYYADSVKGRFTISRDNAKNSLYLQMNSLRAEDTAIYYCARDMPSSSSDWVSLQFDYWGQGTLVTVSS | EC50 (read off the curve) [12]: ~0.7 nM
12 | 81300 |  | ~0.4 nM | PR007418 (antibody, V domains shown, bivalent form (HCAb) variant of PR005340, no light chain) VH: EVQLVESGGGLVKPGGSLRLSCAASGFTFSDFYMSWIRQAPGKGLEWISYIDSSGRPLAYADSVKGRFTISRDNAKNSLYLQMNSLRAEDTAIYYCARDIPSSSSDWVDLQFDYWGQGTLVTVSS | 
13 | 73600 |  |  | PR007422 (antibody, V domains shown, bivalent form (HCAb) variant of PR005340, no light chain) VH: EVQLVESGGGLVKPGGSLRLSCAASGFTFSDFYMSWIRQAPGKGLEWISYIDSSGRPLAYADSVKGRFTISRDNAKNSLYLQMNSLRAEDTAIYYCARDIPSSSSDWVSLQFDYWGQGTLVTVSS | EC50 (read off the curve) [12]: ~0.6 nM
14 | 74500 |  |  | PR007423 (antibody, V domains shown, bivalent form (HCAb) variant of PR005340, no light chain) VH: EVQLVESGGGLVKPGGSLRLSCAASGFTFSDYYMSWIRQAPGKGLEWISYIDSSGRPLAYADSVKGRFTISRDNAKNSLYLQMNSLRAEDTAIYYCARDIPSSSSDWVDLQFDYWGQGTLVTVSS | EC50 (read off the curve) [12]: ~0.4 nM
15 | 75700 |  |  | PR007419 (antibody, V domains shown, bivalent form (HCAb) variant of PR005340, no light chain) VH: EVQLVESGGGLVKPGGSLRLSCAASGFTFSDFYMSWIRQAPGKGLEWISYINTRGSPIGYADSVKGRFTISRDNAKNSLYLQMNSLRAEDTAIYYCARDMPSSSSDWVSLQFDYWGQGTLVTVSS | EC50 (read off the curve) [12]: ~0.8 nM
